*1 amine or outer side, *2 acyl side, *3 side chain or, on linkers, in order; H or OH if unused. Bridges are numbered along the chain shown (N, C = ends). Where no end group is shown, it is not given here. [ ]: non-standard residue; d: D form. formula (I) linker = non-peptide linker -N(R1)-C(R2)(R3)-C(R4)(R5)- (R1 H, R2 H, R3 CH3, R4 H, R5 C(O)NH-tBu), its N is acylated by the C-terminal carbonyl and its C(R4)(R5) carbon is bonded to the N-terminal N; X3 = 3‑aminomethyl‑4‑(4-(1-piperazinyl)phenyl)benzoic acid, O=C(c1ccc(-c2ccc(N3CCN([*:3])CC3)cc2)c(CN[*:1])c1)[*:2]; Thr(OMe) = O-methyl-threonine, CO[C@H](C)[C@H](N[*:1])C(=O)[*:2]; dPhe(4-CH2NH2) = NCc1ccc(C[C@@H](N)C(=O)O)cc1; Phe(4-CH2NH2) = NCc1ccc(C[C@H](N)C(=O)O)cc1; Hyp = O=C(O)[C@@H]1C[C@@H](O)CN1; d(β3hK) = NCCCC[C@@H](N)CC(=O)O; β3hK = NCCCC[C@H](N)CC(=O)O
How the values were obtained:
[1] = target: T1, recombinant integrin α4β7 (R&D Systems, 5397-A3-050) (UniProt P13612 34-970; P26010 20-723); assay: α4β7-MAdCAM-1 competition ELISA
T1 construct: coated on the ELISA plate at 1 µg/ml; also called a4b7; α4β7 integrin
Procedure: (§1) The plate was incubated at 4° C. overnight. […] The plate was then incubated for 1 hour at room temperature. The plate was washed three times with wash buffer (50 mM Tris, 100 mM NaCl, 1 mM MnCl₂, 0.05% Tween). To each well, 50 μl of compound diluted in assay buffer was added by transfer from a compound serial dilution plate. […] The plate was incubated at room temperature with shaking (300 rpm) for 2 hours to reach binding equilibrium. Then the plate was washed three times in wash buffer and 100 μl anti-human IgG Fc specific-HRP (Abcam, Ab97225) diluted at 1:2000 in assay buffer was added to each well. The plate was incubated at room temperature for 1 hour under agitation.
T1 sequence (P13612 34-970, chain 1 of 2): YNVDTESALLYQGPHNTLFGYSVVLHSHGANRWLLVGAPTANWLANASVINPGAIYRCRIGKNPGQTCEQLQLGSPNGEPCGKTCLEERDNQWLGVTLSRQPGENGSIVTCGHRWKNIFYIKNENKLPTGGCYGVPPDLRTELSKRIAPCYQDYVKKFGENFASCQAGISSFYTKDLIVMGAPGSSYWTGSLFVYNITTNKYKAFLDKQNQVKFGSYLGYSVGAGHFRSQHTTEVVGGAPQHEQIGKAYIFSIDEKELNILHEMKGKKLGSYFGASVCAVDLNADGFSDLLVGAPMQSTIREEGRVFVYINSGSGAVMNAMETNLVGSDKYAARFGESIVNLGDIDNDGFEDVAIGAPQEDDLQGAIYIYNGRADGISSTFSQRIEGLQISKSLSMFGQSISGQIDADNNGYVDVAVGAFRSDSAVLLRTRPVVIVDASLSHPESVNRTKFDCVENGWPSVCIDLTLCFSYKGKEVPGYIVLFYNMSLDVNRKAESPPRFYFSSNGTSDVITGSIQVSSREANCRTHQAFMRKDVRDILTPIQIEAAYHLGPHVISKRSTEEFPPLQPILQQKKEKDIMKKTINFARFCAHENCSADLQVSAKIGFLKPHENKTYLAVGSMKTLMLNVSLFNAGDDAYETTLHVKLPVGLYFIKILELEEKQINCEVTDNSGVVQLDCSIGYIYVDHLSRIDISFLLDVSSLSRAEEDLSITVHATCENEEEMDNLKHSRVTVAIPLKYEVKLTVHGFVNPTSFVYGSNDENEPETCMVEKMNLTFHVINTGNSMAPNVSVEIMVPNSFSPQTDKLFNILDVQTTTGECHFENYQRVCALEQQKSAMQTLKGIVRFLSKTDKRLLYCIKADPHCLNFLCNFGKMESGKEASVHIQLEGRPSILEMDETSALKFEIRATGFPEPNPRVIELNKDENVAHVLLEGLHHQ
T1 sequence (P26010 20-723, chain 2 of 2): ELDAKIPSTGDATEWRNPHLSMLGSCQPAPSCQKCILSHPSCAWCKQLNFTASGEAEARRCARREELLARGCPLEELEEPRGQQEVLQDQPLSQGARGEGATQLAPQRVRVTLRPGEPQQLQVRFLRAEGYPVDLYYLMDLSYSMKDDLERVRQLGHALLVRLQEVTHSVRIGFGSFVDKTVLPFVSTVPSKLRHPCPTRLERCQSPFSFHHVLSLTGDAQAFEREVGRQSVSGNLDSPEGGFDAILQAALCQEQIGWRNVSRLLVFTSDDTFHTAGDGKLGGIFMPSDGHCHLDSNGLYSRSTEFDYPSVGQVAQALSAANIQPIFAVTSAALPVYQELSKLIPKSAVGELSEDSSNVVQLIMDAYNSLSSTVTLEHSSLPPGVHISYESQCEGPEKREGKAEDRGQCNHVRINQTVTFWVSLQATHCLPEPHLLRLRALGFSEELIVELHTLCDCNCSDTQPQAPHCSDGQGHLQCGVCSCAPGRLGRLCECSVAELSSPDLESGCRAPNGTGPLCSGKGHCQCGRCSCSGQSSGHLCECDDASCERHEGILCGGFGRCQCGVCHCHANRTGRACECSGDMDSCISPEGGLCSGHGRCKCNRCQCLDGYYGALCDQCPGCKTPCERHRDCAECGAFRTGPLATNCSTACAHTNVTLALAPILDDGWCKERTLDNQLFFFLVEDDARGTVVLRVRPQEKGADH

[2] = target: T2, recombinant integrin α4β1 (R&D Systems, 5397-A3-050 [sic]) (UniProt P13612 34-970; P05556 21-728); assay: α4β1-VCAM-1 competition ELISA
T2 construct: coated on the ELISA plate at 0.5 µg/ml; the printed catalogue number is the same as for α4β7; also called a4b1; α4β1 integrin
T2 sequence (P13612 34-970, chain 1 of 2): as the sequence (P13612 34-970, chain 1 of 2) above
T2 sequence (P05556 21-728, chain 2 of 2): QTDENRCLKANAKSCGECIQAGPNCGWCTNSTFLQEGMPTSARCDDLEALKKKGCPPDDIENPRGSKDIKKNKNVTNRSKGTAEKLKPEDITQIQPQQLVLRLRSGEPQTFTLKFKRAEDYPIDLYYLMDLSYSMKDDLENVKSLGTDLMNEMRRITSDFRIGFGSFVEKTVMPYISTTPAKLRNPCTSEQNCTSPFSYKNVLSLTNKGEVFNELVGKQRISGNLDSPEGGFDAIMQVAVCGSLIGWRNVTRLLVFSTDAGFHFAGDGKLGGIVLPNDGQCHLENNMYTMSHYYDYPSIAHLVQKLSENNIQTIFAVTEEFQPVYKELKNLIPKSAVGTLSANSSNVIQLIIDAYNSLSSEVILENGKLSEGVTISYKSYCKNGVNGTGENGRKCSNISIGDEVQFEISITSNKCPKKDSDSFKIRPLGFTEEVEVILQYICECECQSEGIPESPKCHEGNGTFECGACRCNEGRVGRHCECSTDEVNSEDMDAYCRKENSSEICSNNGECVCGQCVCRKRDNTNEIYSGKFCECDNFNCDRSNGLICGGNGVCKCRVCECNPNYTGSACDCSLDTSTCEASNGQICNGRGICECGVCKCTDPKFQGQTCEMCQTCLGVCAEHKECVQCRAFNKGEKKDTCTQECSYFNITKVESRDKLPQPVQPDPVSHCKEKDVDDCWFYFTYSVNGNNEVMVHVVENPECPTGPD
Procedure: as §1

[3] = target: T2, recombinant integrin α4β1 (R&D Systems, …); assay: ratio of ELISA IC50s, α4β1 over α4β7
Procedure: as §1
(§2) The plate was incubated at 4° C. overnight. […] The plate was then incubated for 1 hour at room temperature. The plate was washed three times with wash buffer (50 mM Tris, 100 mM NaCl, 1 mM MnCl₂, 0.05% Tween). To each well, 50 μl of compound diluted in assay buffer was added by transfer from a compound serial dilution plate. […] The plate was incubated at room temperature with shaking (300 rpm) for 2 hours to reach binding equilibrium.

[4] = target: T3, integrin α4β7 on human cells (human, UniProt P13612 34-1032; P26010 20-798); assay: cell-based or functional assay
T3 sequence (P13612 34-1032, chain 1 of 2): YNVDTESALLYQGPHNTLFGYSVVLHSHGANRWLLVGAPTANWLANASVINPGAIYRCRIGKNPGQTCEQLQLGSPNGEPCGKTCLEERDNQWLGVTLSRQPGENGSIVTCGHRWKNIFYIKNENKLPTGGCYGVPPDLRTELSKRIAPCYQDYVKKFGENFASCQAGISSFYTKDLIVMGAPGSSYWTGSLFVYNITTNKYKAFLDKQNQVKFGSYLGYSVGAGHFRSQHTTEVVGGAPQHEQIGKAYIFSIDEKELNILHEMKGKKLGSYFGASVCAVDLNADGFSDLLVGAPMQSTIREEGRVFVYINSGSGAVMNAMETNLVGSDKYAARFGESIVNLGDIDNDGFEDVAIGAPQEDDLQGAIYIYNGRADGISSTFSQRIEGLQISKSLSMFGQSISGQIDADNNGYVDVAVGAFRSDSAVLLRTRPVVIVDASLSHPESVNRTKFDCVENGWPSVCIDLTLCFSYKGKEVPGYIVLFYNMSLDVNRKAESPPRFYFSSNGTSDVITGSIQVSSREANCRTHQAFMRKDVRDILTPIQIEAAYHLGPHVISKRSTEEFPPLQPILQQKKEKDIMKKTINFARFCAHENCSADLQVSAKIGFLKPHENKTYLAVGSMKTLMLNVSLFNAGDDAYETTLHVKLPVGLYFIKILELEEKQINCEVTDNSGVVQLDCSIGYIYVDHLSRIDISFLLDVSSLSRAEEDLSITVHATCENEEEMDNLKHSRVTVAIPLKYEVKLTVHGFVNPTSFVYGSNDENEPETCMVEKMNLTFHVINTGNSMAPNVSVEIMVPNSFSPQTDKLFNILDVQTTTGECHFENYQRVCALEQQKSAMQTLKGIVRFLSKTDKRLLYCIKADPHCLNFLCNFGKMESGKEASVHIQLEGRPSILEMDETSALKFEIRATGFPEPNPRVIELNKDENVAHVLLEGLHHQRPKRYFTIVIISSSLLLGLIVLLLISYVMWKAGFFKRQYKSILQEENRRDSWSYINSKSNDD
T3 sequence (P26010 20-798, chain 2 of 2): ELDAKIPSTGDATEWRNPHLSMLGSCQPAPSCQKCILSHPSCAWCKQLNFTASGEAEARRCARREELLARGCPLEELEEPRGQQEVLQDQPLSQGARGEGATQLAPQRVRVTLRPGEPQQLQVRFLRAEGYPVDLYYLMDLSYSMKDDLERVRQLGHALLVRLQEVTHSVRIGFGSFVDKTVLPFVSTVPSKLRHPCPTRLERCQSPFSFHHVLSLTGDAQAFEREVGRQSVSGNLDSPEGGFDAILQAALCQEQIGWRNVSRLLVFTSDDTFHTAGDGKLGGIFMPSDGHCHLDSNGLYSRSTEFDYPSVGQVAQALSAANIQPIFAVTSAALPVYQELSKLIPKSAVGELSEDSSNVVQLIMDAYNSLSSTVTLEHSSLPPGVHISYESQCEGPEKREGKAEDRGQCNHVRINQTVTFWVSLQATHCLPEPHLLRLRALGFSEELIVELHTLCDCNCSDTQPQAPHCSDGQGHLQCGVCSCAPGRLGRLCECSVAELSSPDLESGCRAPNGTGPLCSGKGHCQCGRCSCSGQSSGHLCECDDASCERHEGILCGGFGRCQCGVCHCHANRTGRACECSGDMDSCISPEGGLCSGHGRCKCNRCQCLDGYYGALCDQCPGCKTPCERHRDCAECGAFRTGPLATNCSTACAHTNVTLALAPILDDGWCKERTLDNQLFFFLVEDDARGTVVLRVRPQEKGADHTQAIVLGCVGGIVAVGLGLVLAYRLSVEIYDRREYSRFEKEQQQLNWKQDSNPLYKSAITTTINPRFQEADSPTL

[5] = target: T4, integrin α4β1 on human cells (human, UniProt P13612 34-1032; P05556 21-798); assay: VCAM-1 competition, FACS on α4β7-negative Th memory cells, human whole blood
T4 construct: whole, on cells; also called a4b1

[6] = target: T3, integrin α4β7 on human cells; assay: competition with a saturating amount of MAdCAM, flow cytometry on α4β7+ Th memory cells in human whole blood
[7] = target: integrin α4β7 on RPMI8866 human cells (human, UniProt P13612 34-1032; P26010 20-798); assay: cell-based or functional assay
Chain of integrin α4β7 on RPMI8866 human cells (P13612 34-1032, chain 1 of 2): as the sequence (P13612 34-1032, chain 1 of 2) above
Chain of integrin α4β7 on RPMI8866 human cells (P26010 20-798, chain 2 of 2): as the sequence (P26010 20-798, chain 2 of 2) above

[8] = target: T5, recombinant integrin α4β7 (R&D Systems, 5397-A3-050) (UniProt P13612 34-970; P26010 20-723); assay: competition ELISA, MAdCAM-Fc on coated α4β7
T5 construct: bought; coated on the ELISA plate; also called a4b7; α4β7 integrin
Procedure: as §1
T5 sequence (P13612 34-970, chain 1 of 2): as the sequence (P13612 34-970, chain 1 of 2) above
T5 sequence (P26010 20-723, chain 2 of 2): as the sequence (P26010 20-723, chain 2 of 2) above

[9] = target: T6, recombinant integrin α4β1 (R&D Systems, 5397-A3-050) (UniProt P13612 34-970; P05556 21-728); assay: IC50 on α4β1 / IC50 on α4β7
T6 construct: bought; coated on the ELISA plate; also called a4b1; α4β1 integrin
T6 sequence (P13612 34-970, chain 1 of 2): as the sequence (P13612 34-970, chain 1 of 2) above
T6 sequence (P05556 21-728, chain 2 of 2): as the sequence (P05556 21-728, chain 2 of 2) above
Procedure: as §1, §2

[10] = target: T6, recombinant integrin α4β1 (R&D Systems, …); assay: competition ELISA, VCAM-Fc on coated α4β1
Procedure: as §1

IC50 [1] | IC50 [2] | ELISA Assay Ratio b1/b7 [3] | Binder | also measured
33 nM | 413 nM | – | P[Phe(4-CH2NH2)][β3hK]LDI (bridge N-C; not fully specified (bridges); printed as Pro X1 X2 Leu Asp Ile, macrocycle of formula (I)) [Compound No. 215] | –
69 nM | 1090 nM | – | cyclo(P[dPhe(4-CH2NH2)][β3hK]LDI) (also: macrocycle closed by non-peptide linker -NH-CH(CH3)-CH(C(O)NH-tBu)- between Pro1 N and C-terminal C, macrocycle of formula (I)) [Compound No. 253] | –
55 nM | 1800 nM | 33 | cyclo(P[Phe(4-CH2NH2)][β3hK]LDV) (also: macrocycle closed by non-peptide linker -NH-CH(CH3)-CH(C(O)NH-tBu)- between Pro1 N and C-terminal C, macrocycle of formula (I)) [Compound No. 254] | –
54 nM | 447 nM | 8.2 | PYXXDT (X^z dPip; X^1 tertbutylAla, macrocycle of formula (I)) [Compound No. 150] | –
– | – | – | P[X3]LDT (bridge (positions not given here); not fully specified (residue 2, bridges); also: homodimer: diphenic acid diamide on piperazine N of X2 joins two copies, also called ET3764; ET03764) [Compound No. 517] | IC50 in the RPM18866 cell adhesion assay [4]: 9.9 nM; IC50 [5]: 600 nM; EC50 [6]: 38 nM
– | – | – | [Hyp]FLDT (linker N-C via formula (I) linker) [Compound No. 32] | RPMI8866 Adhesion a4b7/MAdCAM IC50 [7]: 11200 nM
96 nM | 1740 nM | 18.2 | PF[d(β3hK)]LDI (bridge N-C; not fully specified (bridges); printed as Pro Phe X Leu Asp Ile, macrocycle of formula (I)) [Compound No. 220] | –
– | – | – | PFLD[Thr(OMe)] (bridge N-C; not fully specified (bridges); printed as Pro Phe Leu Asp X, macrocycle of formula (I); R1 H, R2 H, R3 CH3, R4 H, R5 C(O)-NH-tert-Butyl) [Compound No. 40] | IC50 [8]: 63 nM; ELISA Assay Ratio b1/b7 [9]: 1.9; IC50 [10]: 119 nM

Source: patent US20230406884A1 (ZEALAND PHARMA A S, published 2023)
